The values below come from paper PMC5827731.

For assay [1], the target named is SURF6-N (N-terminal segment of Surfeit locus protein 6, residues 1-182) (UniProt O75683).
Assay [2] concerns the target NPM1^mutB2 (Lys and Arg to Ala in the B2-tract) (UniProt P06748).

UniProt O75683, sequence (O75683 1-182): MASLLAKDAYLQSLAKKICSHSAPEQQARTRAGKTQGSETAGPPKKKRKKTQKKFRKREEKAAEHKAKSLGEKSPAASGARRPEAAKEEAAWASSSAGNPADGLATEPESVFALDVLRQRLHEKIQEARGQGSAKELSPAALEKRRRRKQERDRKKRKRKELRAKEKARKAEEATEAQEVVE

“NPM1^N188 (NPM1 truncation that lacks the CTD plus the B2-tract) (domain or fragment)” yielded a threshold concentration for heterotypic LLPS with SURF6-N (turbidity, Fig. 2c) in assay [1] of 30 µM.

Regarding “NPM1^mutB2 (Lys and Arg to Ala in the B2-tract) (from UniProt P06748 1-294) (natural protein)”, in assay [2], the threshold SURF6-N concentration for heterotypic LLPS, NPM1 construct at 20 µM (turbidity) turned out to be 60 µM.
